Experimental data: doi:10.1101/2024.11.25.625199

Biological target: cross-linked CA(M66I) hexamer, CA(A14C/E45C/W184A/M185A) with M66I (HIV-1)
Assay: crystal structure

Which stoichiometry N does the source give for “cross-linked CA(M66I) hexamer, CA(A14C/E45C/W184A/M185A) with M66I (natural protein)” here?
The stoichiometry N was 6.
